Measurements from patent US20230348881.

Tests used:
[1] = tested on: wild-type PPE proprotein as used in Example 2
[2] = tested on: exemplary modified PPE proproteins

Chain of wild-type PPE proprotein as used in Example 2 (chain, as listed by the source): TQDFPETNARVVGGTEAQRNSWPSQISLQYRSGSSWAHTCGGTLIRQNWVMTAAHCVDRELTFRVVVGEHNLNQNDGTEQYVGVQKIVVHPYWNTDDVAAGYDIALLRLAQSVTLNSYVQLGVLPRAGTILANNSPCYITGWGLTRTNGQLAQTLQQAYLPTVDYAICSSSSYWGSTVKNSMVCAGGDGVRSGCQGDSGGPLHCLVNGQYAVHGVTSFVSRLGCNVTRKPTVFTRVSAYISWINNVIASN

**Q.** Which “catalytic activity after protease digestion (colorimetric substrate assay), FIG. 4B” value [1] does the source give for purified trypsin here?
**A.** the wild-type PPE protein was catalytically-active after incubation with trypsin

**Q.** What about the “protease cleavage by SDS-PAGE and Coomassie blue staining” value [1] of the same substance?
**A.** trypsin cleaved the wild-type PPE as a control

**Q.** What about the “catalytic activity after protease digestion (colorimetric substrate assay), FIG. 4B” value [2] of the same substance?
**A.** catalytically-inactive after incubation with trypsin or no protease
